Assay results as given in US20240010742A1 (RESEARCH DEVELOPMENT FOUNDATION, published 2024).

T1: FcγRIIaR131 (human, UniProt P12318 36-218, limits assumed, biotinylated (BLI, beads))
T1 construct: also called FcgRIIaR131; 2aR
T1 sequence (looked up): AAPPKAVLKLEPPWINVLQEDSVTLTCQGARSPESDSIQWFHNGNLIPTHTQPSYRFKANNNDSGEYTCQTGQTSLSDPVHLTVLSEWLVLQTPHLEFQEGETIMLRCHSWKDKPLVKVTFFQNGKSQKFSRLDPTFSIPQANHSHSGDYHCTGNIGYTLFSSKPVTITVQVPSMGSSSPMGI

T2: FcγRIIaH131 (human, UniProt P12318 36-218, limits assumed, biotinylated (BLI, beads))
T2 construct: also called FcgRIIaH131
T2 sequence (looked up): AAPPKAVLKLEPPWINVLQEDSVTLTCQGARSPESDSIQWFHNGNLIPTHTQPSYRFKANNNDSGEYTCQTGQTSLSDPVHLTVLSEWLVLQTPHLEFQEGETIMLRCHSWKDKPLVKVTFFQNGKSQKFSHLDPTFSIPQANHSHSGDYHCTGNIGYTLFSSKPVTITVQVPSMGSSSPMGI

T3: FcγRIIb (human, UniProt P31994 46-217, limits assumed, biotinylated (BLI, beads))
T3 construct: Recombinant receptor on biosensors, SPR or beads; also called FcgRIIb; 2b
T3 sequence (looked up): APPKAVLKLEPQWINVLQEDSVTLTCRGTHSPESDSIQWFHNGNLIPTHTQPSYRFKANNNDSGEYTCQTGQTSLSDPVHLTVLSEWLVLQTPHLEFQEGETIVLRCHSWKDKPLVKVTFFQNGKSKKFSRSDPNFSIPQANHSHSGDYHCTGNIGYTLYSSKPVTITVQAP

T4: FcγRIIb on cells (Raji cells; THP-1 cells) (human, UniProt P31994 43-310)
T4 construct: whole, on cells; also called FcγR2b; FcgR2b
T4 sequence (looked up): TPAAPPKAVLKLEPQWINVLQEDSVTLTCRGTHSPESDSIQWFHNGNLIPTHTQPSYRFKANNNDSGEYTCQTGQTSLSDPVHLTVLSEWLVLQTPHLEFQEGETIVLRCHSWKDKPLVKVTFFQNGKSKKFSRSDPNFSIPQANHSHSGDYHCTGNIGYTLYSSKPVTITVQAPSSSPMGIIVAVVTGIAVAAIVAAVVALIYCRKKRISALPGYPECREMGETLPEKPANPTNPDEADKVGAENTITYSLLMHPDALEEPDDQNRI


Experiments:
FcγRIIaR131 [1] = target: T1, FcγRIIaR131; assay: flow cytometry: hexameric Fc on FcγR-coated beads; mean fluorescence intensity
FcgRIIIbNA2 [2] = target: T5, FcgRIIIbNA2 (human, UniProt O75015 17-200, limits assumed); assay: as above
T5 construct: also called FcγRIIIb
T5 sequence (O75015 17-200 limits assumed): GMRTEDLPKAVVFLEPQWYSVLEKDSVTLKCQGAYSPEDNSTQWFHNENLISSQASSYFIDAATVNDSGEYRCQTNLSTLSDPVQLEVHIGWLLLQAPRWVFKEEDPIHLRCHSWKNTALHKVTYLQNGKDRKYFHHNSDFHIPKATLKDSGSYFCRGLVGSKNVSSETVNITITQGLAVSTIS

FcγRIIaH131 [3] = target: T2, FcγRIIaH131; assay: as above
FcγRIIIaV158 [4] = target: T6, FcγRIIIaV158 (human, UniProt P08637 17-208, biotinylated (BLI, beads)); assay: as above
T6 construct: also called FcgRIIIaV158; 3aV
T6 sequence (P08637 17-208 F176V limits assumed): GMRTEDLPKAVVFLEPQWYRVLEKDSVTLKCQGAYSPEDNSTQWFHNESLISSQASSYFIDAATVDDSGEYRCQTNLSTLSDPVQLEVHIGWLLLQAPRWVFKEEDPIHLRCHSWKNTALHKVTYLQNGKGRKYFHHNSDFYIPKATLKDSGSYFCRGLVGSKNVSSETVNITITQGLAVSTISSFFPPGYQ

FcγRI = target: T7, FcγRI (human, UniProt P12314 16-288, limits assumed, biotinylated (BLI, beads)); assay: flow cytometry: hexameric Fc on FcγR-coated beads; y axis = mean fluorescence intensity
T7 construct: Recombinant receptor; also called FcgRI
T7 sequence (P12314 16-288 limits assumed): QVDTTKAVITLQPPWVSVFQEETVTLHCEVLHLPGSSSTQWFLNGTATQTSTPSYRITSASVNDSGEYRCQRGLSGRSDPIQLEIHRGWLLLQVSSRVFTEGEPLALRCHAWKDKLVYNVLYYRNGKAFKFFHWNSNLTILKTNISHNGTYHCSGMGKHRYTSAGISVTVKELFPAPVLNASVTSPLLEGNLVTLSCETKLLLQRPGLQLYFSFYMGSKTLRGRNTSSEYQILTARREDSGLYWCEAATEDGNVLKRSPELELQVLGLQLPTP

FcγRIIb = target: T3, FcγRIIb; assay: as above
[5] = target: T4, FcγRIIb on cells (Raji cells; THP-1 …); assay: flow cytometry: hexameric Fc on Raji cells (only FcγR2b among Fc receptors), 40 to 0.039 ug/ml; upper panel fluorescence intensity (axis without title), lower panel percent positive; last bar of each group = Ramos cells at 40 ug/ml
Procedure: Error bars are standard error of the mean of triplicate samples. Statistical analysis was performed by one way ANOVA with Tukey s multiple comparisons test (***P 0.001, ****P 0.0001). […] The cell binding of hexameric Fc was tested with Raji cell which expresses only FcγR2b among Fc receptors (FIG. 13).

FcγRIIaR131 [6] = target: T1, FcγRIIaR131; assay: flow cytometry: hexameric Fc on FcγR-coated beads; y axis = mean fluorescence intensity
FcgRIIIbNA2 [7] = target: T5, FcgRIIIbNA2; assay: flow cytometry: hexameric Fc ('Hex 2b18KQS-1') on FcγR-coated beads; mean fluorescence intensity
FcγRIIaH131 [8] = target: T2, FcγRIIaH131; assay: as above
FcγRIIIaV158 [9] = target: T6, FcγRIIIaV158; assay: as above

Row | binding result (FcγRIIaR131 [1]) | binding result (FcgRIIIbNA2 [2]) | binding result (FcγRIIaH131 [3]) | binding result (FcγRIIIaV158 [4]) | binding result (FcγRI) | binding result (FcγRIIb) | binding result [5] | binding result (FcγRIIaR131 [6]) | binding result (FcgRIIIbNA2 [7]) | binding result (FcγRIIaH131 [8]) | binding result (FcγRIIIaV158 [9]) | Binder
1 | no binding | no binding | no binding | no binding | binds | binds | binds |  |  |  |  | Hex 2b18KQS-ST (glycosylated version of Hex 2b18KQS) (Fc fusion, Ser298/Thr299 restored (glycosylated); forms a hexamer of Fc; also called glycosylated Hex 2b18KQS-ST Fc; hexameric 2b18KQS-ST Fc) EPKSCDKTHTCPPCPAPVDFRDPLVFLFPPKPKDTLMISRTPEVTCVVVDVSPEDPEVKFNWYVDGVEVHNAKTKPQEEQYNSTYRVVSVLTVCHQDWLNGKEYKCKVSNKLAPHPIIKTISKAKGQPREPQVYTLPPSRDELTKNQVSLTCLVKGFYPSDIAVEWESNGQPENNYKTTPPVLDSDGSFFLYSKLTVDKSRWQQGNVFSCSVMHEALHNHYTQKSLSLSPGKPTLYNVSLVMSDTAGTCY
2 |  |  |  |  |  | binds | binds | binds | no binding | no binding | no binding | Hex 2b18KQS (aglycosylated hexameric Fc) (Fc fusion, forms a hexamer of Fc; also called Hex 2b18KQS Fc; Hex-2bKQS) EPKSCDKTHTCPPCPAPVDFRDPLVFLFPPKPKDTLMISRTPEVTCVVVDVSPEDPEVKFNWYVDGVEVHNAKTKPQEEQYNGAYRVVSVLTVCHQDWLNGKEYKCKVSNKLAPHPIIKTISKAKGQPREPQVYTLPPSRDELTKNQVSLTCLVKGFYPSDIAVEWESNGQPENNYKTTPPVLDSDGSFFLYSKLTVDKSRWQQGNVFSCSVMHEALHNHYTQKSLSLSPGKPTLYNVSLVMSDTAGTCY
3 |  | no binding | no binding | no binding | binds | binds |  | binds |  |  |  | Hex 2b18K-ST (Fc fusion, also called Hex2b218K-ST; glycosylated hexameric construct of Fc variant 2b18K) Fc-tailpiece fusion chain: EPKSCDKTHTCPPCPAPVDFRDPLVFLFPPKPKDTLMISRTPEVTCVVVDVDPEDPEVKFNWYVDGVEVHNAKTKPREEQYNSTYRVVSVLTVCHQDWLNGKEYKCKVSNKLAPHPIIKTISKAKGQPREPQVYTLPPSRDELTKNQVSLTCLVKGFYPSDIAVEWESNGQPENNYKTTPPVLDSDGSFFLYSKLTVDKSRWQQGNVFSCSVMHEALHNHYTQKSLSLSPGKPTLYNVSLVMSDTAGNCY
